Data: article PMC7054047 (The FEBS journal, 2019)

B1: WSCP M4FJ52 from Chinese cabbage (Brassica rapa subsp. Pekinensis) (natural protein)
chain: not shown
B2: WSCP A0A087HRG5 from Arabis alpina (natural protein)
chain: not shown
B3: WSCP from Arabidopsis thaliana (natural protein, UniProt Q9C7S6 24-215, looked up)
chain: NEPVKDTAGNPLNTREQYFIQPVKTESKNGGGLVPAAITVLPFCPLGITQTLLPYQPGLPVSFVLALGVGSTVMTSSAVNIEFKSNIWPFCKEFSKFWEVDDSSSAPKEPSILIGGKMGDRNSSFKIEKAGEGARANVYKLTTFYGTVGAIPGVWLSAPQLIITKDTAKTLLVKFKKVDDATTATSNLYFPG

Target: the molecule itself
Test: SEC

Stoichiometry N, 4:
B1, B2, B3
